The experiment deals with CSN3 (human (endogenous in HEK293, HEK293T …, UniProt Q9UNS2 1-423)). The experiment is described as follows: co-IP.
Sequence of CSN3 (human (Q9UNS2 whole entry): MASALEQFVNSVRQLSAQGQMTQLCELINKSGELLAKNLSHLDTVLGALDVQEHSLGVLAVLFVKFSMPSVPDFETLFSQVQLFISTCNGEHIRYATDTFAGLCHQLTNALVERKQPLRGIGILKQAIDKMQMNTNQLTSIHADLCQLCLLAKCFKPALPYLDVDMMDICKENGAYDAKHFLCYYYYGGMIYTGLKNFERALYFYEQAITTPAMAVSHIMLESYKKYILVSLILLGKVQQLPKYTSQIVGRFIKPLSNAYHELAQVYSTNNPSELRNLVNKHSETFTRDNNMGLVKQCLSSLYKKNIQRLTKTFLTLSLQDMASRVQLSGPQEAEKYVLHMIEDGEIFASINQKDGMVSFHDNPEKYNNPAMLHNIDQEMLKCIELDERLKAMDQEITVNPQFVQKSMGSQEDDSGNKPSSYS

B1: CSNAP (CSN Acidic Protein) (natural protein)
chain: MKPAVDEMFPEGAGPYVDLDEAGGSTGLLMDLAANEKAVHADFFNDFEDLFDDDDIQ
Take B1: the binding result is on record as “binds”.

(Values after paper PMC5724754 (Cell reports, 2015).)
